# In US20260209316A1:
# Like-named read-outs stand apart in the source and are kept apart here.
# Tests used:
# [1] = biological target: thermolysin-cleaved SUDV GP (GP(S)THL) (Sudan virus (SUDV)) (UniProt Q7T9D9); assay: BLI; Sudan GPTHL on sensor, NPC1-dC, then NPC1-dC (self-competition)
# [2] = biological target: thermolysin-cleaved SUDV GP (GP(S)THL) (Sudan virus (SUDV)) (UniProt Q7T9D9); assay: as above; remark: listed apart in the source
# Chain of Niemann-Pick disease, type C1-domain C (NPC1-dC) (O15118 373-620 limits assumed): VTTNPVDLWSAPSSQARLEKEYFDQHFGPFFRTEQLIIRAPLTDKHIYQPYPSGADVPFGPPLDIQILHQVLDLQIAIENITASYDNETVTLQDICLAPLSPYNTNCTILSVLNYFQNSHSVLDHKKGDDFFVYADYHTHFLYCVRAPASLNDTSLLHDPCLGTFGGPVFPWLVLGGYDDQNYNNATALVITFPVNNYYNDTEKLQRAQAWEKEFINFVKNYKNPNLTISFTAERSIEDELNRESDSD
substance,measurement,setting,value
"Niemann-Pick disease, type C1-domain C (NPC1-dC) (from UniProt O15118 373-620) (receptor)",percent blocking of NPC1-dC binding,[1],79%
same,percent blocking of NPC1-dC binding,[2],72%
